{
  "source": "paper PMC4766306",
  "about": "“CYP96T1 of Narcissus sp. aff. pseudonarcissus Catalyzes Formation of the Para-Para' C-C Phenol Couple in the Amaryllidaceae Alkaloids” (Frontiers in Plant Science, 2016)",
  "proteins": {"B1": {"name": "CYP96T1 (Narcissus aff. pseudonarcissus MK-2014) (protein)", "chain": "MATSSSAWLMFSDHYPEILIAIACFLIFSLLLSARSSSEDSLPYNWPIFGMLPAIISNNQFNDFTTARLRKMGWTFIFKGPWLLDMDYIFTCDPSNINHMFNDNFENYPKGELGKVFDIFGNNIFNADGDLWHDHRKMAQTILWDGNYRTMQATFIRNKMDNALIPILDSAASKRKPVDLQDVFFRFTFDTSCFSVLAADPESLTMEFPAVPFSKAADQALDAALTRHITPRLIWKLKRFFNVGSERTLAVAWKVIDSYIYDKIAELKAKRKLVGKINSYDAVSFYMDNFNIHDDKFLRDNAFTYLLAQRNTQSLTMTWLFYALFENPKVELKILSELKSIVDESSERKFNDGFALFDSNMIQSAIYLHATLCEALRIYPPVPFEIKDAHKADVLPSGHKVRAGEKILFSPYAMARMKGIWGDDCLEFKPERWITGNGTLKHEPAYKFFAFSAGPRICLGKELSFTQMKMVVATIIYNFHLQMVKGHVVEQSNSILMDMKHGLMVQVRKRSVM", "notes": "CYP96T1 ORF (GenBank KT693311) expressed in Sf9 cells, co-expressed with Eschscholzia californica CPR"}},
  "format_in_all_cases": "cell-based, Narcissus aff. pseudonarcissus MK-2014",
  "details_in_all_cases": "heme",
  "key": {"[1]": {"substrate": "COc1cc2c(cc1O)[C@@H](Cc1ccc(O)cc1)NCC2", "assay": "LC-MS/MS enzyme kinetics with Sf9-expressed CYP96T1"}, "[2]": {"substrate": "COc1cc2c(cc1O)[C@H](Cc1ccc(O)cc1)NCC2", "assay": "LC-MS/MS enzyme kinetics with Sf9-expressed CYP96T1"}, "[3]": {"substrate": "COc1ccc(CN(C)CCc2ccc(O)cc2)cc1O", "assay": "LC-MS/MS enzyme kinetics with Sf9-expressed CYP96T1; CPR-only negative control"}, "[4]": {"substrate": "COc1ccc(CNCCc2ccc(O)cc2)cc1O", "assay": "LC-MS/MS enzyme kinetics with Sf9-expressed CYP96T1; CPR-only negative control"}},
  "data": [
    {"protein": "B1", "values": [
      {"measurement": "Km", "setting": "[1]", "value": "659 ± 104", "unit": "µM"},
      {"measurement": "kcat", "setting": "[1]", "value": "0.0345 ± 0.00233", "unit": "s⁻¹"},
      {"measurement": "kcat/Km", "setting": "[1]", "value": 52.5, "unit": "M⁻¹ s⁻¹"},
      {"measurement": "Km", "setting": "[2]", "value": "637 ± 156", "unit": "µM"},
      {"measurement": "kcat", "setting": "[2]", "value": "0.0223 ± 0.0025", "unit": "s⁻¹"},
      {"measurement": "kcat/Km", "setting": "[2]", "value": 35.2, "unit": "M⁻¹ s⁻¹"},
      {"measurement": "Km", "setting": "[3]", "value": "3.28 ± 2.27", "unit": "µM"},
      {"measurement": "kcat", "setting": "[3]", "value": "0.0407 ± 0.009", "unit": "s⁻¹"},
      {"measurement": "kcat/Km", "setting": "[3]", "value": 12400, "unit": "M⁻¹ s⁻¹"},
      {"measurement": "Km", "setting": "[4]", "value": "1.13 ± 0.54", "unit": "µM"},
      {"measurement": "kcat", "setting": "[4]", "value": "0.25 ± 0.0338", "unit": "s⁻¹"},
      {"measurement": "kcat/Km", "setting": "[4]", "value": 217000, "unit": "M⁻¹ s⁻¹"}
    ]}
  ]
}
